According to patent US20210292414A1 (H LUNDBECK A S, published 2021):
Changes are numbered by the printed parent chain. Values belong to the binder of their own block, whether it stands above or below them.

Experiments:
Experiment in all cases: BLI (Octet384RED)
[1] = target: T1, Sortilin SORTECDBAP_tetra (tetraodon)
T1 construct: Fully tetraodon Sortilin ECD with BAP tag; also called tetraodon; tetraodon Sortilin
T1 chain: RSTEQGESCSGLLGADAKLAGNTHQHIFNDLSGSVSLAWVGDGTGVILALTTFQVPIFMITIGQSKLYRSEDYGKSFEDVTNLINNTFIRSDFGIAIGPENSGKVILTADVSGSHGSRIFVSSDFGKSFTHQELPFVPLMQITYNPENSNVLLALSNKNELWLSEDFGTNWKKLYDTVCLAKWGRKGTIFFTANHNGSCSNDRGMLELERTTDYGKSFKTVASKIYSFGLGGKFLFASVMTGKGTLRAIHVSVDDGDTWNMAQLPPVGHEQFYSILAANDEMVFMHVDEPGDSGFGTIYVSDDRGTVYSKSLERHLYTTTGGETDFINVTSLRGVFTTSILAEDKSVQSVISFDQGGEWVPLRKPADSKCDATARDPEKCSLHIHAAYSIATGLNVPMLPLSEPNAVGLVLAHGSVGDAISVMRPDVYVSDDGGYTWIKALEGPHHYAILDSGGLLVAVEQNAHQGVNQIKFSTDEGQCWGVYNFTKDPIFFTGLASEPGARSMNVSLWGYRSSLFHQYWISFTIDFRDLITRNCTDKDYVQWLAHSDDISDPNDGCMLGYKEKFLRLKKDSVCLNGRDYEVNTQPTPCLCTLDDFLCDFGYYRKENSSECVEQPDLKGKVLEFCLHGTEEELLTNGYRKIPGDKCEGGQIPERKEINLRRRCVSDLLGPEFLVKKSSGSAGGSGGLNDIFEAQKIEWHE

[2] = target: T2, hRim
T2 chimeric human/tetraodon Sortilin extracellular region, BAP tag: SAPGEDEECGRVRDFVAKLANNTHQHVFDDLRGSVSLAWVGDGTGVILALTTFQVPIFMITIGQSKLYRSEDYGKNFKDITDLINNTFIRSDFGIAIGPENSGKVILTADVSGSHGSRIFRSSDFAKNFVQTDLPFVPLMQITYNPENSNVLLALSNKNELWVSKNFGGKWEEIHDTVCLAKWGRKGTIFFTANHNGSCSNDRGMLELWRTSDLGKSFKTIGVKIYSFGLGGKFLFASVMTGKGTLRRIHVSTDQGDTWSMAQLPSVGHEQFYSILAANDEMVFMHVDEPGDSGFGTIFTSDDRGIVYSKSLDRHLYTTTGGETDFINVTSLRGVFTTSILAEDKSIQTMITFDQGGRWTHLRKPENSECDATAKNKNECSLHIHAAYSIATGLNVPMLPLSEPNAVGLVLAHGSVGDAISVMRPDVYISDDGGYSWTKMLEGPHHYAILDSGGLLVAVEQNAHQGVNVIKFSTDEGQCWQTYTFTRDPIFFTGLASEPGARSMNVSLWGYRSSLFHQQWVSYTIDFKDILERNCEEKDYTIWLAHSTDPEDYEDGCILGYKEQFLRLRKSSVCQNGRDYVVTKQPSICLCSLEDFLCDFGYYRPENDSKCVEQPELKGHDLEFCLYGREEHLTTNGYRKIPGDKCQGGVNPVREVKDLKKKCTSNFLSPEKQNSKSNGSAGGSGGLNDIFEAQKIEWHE

[3] = target: T3, hBack
T3 chimeric human/tetraodon Sortilin extracellular region, BAP tag: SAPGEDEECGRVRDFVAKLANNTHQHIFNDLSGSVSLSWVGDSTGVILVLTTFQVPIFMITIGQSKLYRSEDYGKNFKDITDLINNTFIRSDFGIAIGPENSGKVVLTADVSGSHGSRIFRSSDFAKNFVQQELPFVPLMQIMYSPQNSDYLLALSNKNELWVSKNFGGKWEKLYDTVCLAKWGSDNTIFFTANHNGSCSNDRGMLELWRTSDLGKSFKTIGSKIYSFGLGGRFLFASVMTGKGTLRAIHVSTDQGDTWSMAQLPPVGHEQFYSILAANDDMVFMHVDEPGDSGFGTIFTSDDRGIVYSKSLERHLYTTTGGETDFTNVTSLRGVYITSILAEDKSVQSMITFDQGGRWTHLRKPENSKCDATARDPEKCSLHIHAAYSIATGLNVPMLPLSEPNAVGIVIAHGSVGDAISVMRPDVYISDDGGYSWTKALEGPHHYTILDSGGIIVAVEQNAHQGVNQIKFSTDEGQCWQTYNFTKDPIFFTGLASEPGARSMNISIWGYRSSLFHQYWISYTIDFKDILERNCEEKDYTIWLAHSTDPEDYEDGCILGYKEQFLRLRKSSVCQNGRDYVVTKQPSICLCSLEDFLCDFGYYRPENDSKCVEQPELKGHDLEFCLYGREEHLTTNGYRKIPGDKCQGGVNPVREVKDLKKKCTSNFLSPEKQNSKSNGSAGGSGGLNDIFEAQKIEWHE

B1: Antibody 6003-030 (antibody, human IgG1, V domains shown)
VH: EVQVLESGGGLVQPGGSLRLSCAASGFTFSSYAMSWVRQAPGKGLEWVSTISGRGGNTYYADSVKGRFTISRDNSKNTLYLQMDSLRAEDTAVYYCAIIPSLYWYFDLWGRGTLVTVSS
VL: EIVLTQSPATLSLSPGERATLSCRASQSVSSYLAWYQQKPGQAPRLLIYDASNRATGIPARFSGSGSGTDFTLTISSLEPEDFAVYYCQQRSNWPLTFGGGTKVEIK
notes: Human antibody (HuMab); also called antibody 30; mAb30
binding result [1]: no binding | EC50 [2]: 0.86 ng/mL | EC50 [3]: 0.85 ng/mL

B2: Antibody 6003-083 (antibody, human IgG1, V domains shown)
VH: B1 VH with V4L, N57S, D84N, I99V, P100A, S101T, L102M
VL: B1 VL with L96I, G100Q, K103R, V104L
binding result [1]: no binding | EC50 [2]: 0.99 ng/mL | EC50 [3]: 1.34 ng/mL

B3: Antibody 6003-056 (antibody, human IgG1, V domains shown)
VH: B1 VH with A23V, S35H, T50A, N57S, D84N
VL: B1 VL with Y32F
binding result [1]: no binding | EC50 [2]: 1.24 ng/mL | EC50 [3]: 1.14 ng/mL

B4: Antibody 6003-028 (antibody, human IgG1, V domains shown)
VH: B1 VH with V4L, N57S, D84N, I98N, I99L, P100Y, L102N
VL: B1 VL with Y32F
binding result [1]: no binding | EC50 [2]: 2.04 ng/mL | EC50 [3]: 1.87 ng/mL

Next, values leading:

binding result [1]: no binding | EC50 [2]: 1.05 ng/mL | EC50 [3]: 1.02 ng/mL
B5: Antibody 6003-1286 (antibody, human IgG1, V domains shown)
VH: B1 VH with V4L, D84N, T91A, I98N, P100Y, L102H
VL: B1 VL with S30N

binding result [1]: no binding | EC50 [2]: 2.28 ng/mL | EC50 [3]: 1.6 ng/mL
B6: Antibody 6003-381 (antibody, human IgG1, V domains shown)
VH: QVQLVESGGGVVQPGRSLRLSCAASGFTFSNYVMHWVRQAPGKGLEWVAAISYNGNNKYYADSVKGRFTISRDNSKNTLYLQMNSLRAEDTAVSYCAKGLNDAFDIWGQGTMVTVSS
VL: not shown

binding result [1]: no binding | EC50 [2]: 4.34 ng/mL | EC50 [3]: 4.07 ng/mL
B7: Antibody 6003-1277 (antibody, V domains shown)
VH: QVQLVQSGAEVKKPGASVKVSCKTSGYTFTHYGISWVRQAPGQGLEWMGWINTYNGNTKYAQKLQGRVTMTTDTSTSTAYMELRSLRSDDTAVYYCASLGRNFDYWGQGTLVTVSS
VL: not shown

binding result [1]: no binding | EC50 [2]: 2.78 ng/mL | EC50 [3]: 2.37 ng/mL
B8: IgG1-6003-408 (antibody, V domains shown)
VH: EVQLVESGGGLVKPGGSLRLSCAASGFTFSSYSMNWVRQAPGKGLEWVSSISSSSSYIYYADSVKGRFTISRDNAKNSLYLQMNSLRAEDTAVYYCARRRIAAAGTGYGAFDIWGQGTMVTVSS
VL: ARQLTQSPSSLSASVGDRVTITCRASQGITSALAWYQQKPGKVPKLLIYDASSLESGVPSRFSGSGSGTDFTLTISSLQPEDFATYYCQQFNGYPMFSFGQGTKLEII
notes: also called Antibody 6003-408
